According to patent publication US20060051363A1, “Protein inducing cell death of helicobacter pylori” (JAPAN SCIENCE AND TECHNOLOGY AGENCY, priority 2002, published 2006):

T1: subunit 2 of the apoptosis-inducing protein from Helicobacter pylori (amino acids 380-567 of the protein … (Helicobacter pylori strain 26695))
T1 construct: Purified from the membrane fraction of H. pylori strain 26695; this follows from the lengths; also called about 22 kDa band
T1 chain: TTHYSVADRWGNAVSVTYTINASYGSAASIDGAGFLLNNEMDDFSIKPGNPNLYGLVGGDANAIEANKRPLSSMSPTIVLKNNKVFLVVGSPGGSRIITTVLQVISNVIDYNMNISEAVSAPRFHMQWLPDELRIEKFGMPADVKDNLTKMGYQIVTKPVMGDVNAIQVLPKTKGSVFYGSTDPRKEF

B1: subunit 1 of the apoptosis-inducing protein from Helicobacter pylori (amino acids 27-379 of the protein encoded by the HP1118 gamma-glutamyl transferase gene) (enzyme)
chain: ASYPPIKNTKVGLALSSHPLASEIGQKVLEEGGNAIDAAVAIGFALAVVHPAAGNIGGGGFAVIHLANGENVALDFREKAPLKATKNMFLDKQGNVVPKLSEDGYLAAGVPGTVAGMEAMLKKYGTKKLSQLIDPAIKLAENGYAISQRQAETLKEARERFLKYSSSKKYFFKKGHLDYQEGDLFVQKDLAKTLNQIKTLGAKGFYQGQVAELIEKDMKKNGGIITKEDLASYNVKWRKPVVGSYRGYKIISMSPPSSGGTHLIQILNVMENADLSALGYGASKNIHIAAEAMRQAYADRSVYMGDADFVSVPVDKLINKAYAKKIFDTIQPDTVTPSSQIKPGMGQLHEGSN
notes: Purified from the membrane fraction of H. pylori strain 26695; this follows from the lengths; also called about 40 kDa band
B2: protein purified in example 1: Helicobacter pylori protein complex of two subunits (SEQ ID NO: 1 and 2; about 40 kDa and 22 kDa) encoded by the HP1118 gene (protein)
chain 1: B1 chain
chain 2: T1 chain
modifications: Helicobacter Pylori
notes: about 40 kDa and 22 kDa) encoded by the HP1118 gene

Experiments:
[1] = target: T1, subunit 2 of the apoptosis-inducing …; assay: native PAGE under acid condition (single band), then 2D SDS-PAGE (two bands, about 40 kDa and 22 kDa)
[2] = system: human gastric adenocarcinoma cell line AGS; assay: cytotoxic effect assayed using WST-1 kit in AGS cells; assay type: cell-based; details: FIG. 7
Procedure: In this example, the apoptosis-inducing activity was measured as the cytotoxic activity in human gastric adenocarcinoma cell line AGS (ATCC CRL 1739) using Quick Cell Proliferation Assay Kit (Cat.BV-K301-10) (BioVision). The cell viability (surviving cell), from which an apoptosis-inducing activity is calculated, is based on the activity of intracellular mitochondrial dehydrogenase activity as a marker enzyme and is measured by the absorbance at 450 nm after 1 hr incubation at 37° C. with the substrate of the enzyme. The absorbance indicates the cell viability. The more cytotoxic, the less the absorbance is according to the mesurement.
(§1) In this example, the apoptosis-inducing activity of the protein purified in example 1 was examined in human gastric adenocarcinoma cell line AGS (ATCC CRL 1739), in human gastric carcinoma cell line KATO III (Human Science Research Resources Bank, Cat No. JCRB0611 (ATCC, HTB-103)) and in human uterine cervix cancer-derived HeLa cell (Human Science Research Resources Bank, Cat No. JCRB9004).
(§2) The cytotoxic effect was assayed using WST-1 kit (Roche Diagnotics).

[3] = system: human gastric carcinoma cell line KATO III; assay: cytotoxic effect assayed using WST-1 kit in KATO III cells; assay type: cell-based; details: FIG. 8
Procedure: as §1, §2

[4] = system: human uterine cervix cancer-derived HeLa cell; assay: cytotoxic effect assayed using WST-1 kit in HeLa cells; assay type: cell-based; details: FIG. 7
Procedure: as §1, §2

AGS cells = assay: induction of apoptosis in AGS cells (Hoechst 33342 nuclear staining, fluorescence microscopy); assay type: cell-based, human; details: Hoechst 33342 staining, FIG. 9
From the text: Also, the induction of apoptosis in AGS cells by the protein was examined: Trypsinized apoptotic and control cells were collected and stained with a fluorescent dye (Hoechst 33342), which stains cellular nuclei. Since the nuclei of apoptotic cells are highly condensed and fragmented, apoptotic cells are easily differentiated from control cells under fluorescence microscopy. Cells were put on a slide glass, the number of apoptotic cells and control cells were counted and the percentage of apoptotic cells in total cells was enumerated. At least total 500 cells were counted for each experiment.

Molecule	binding result [1]	cytotoxic activity [2]	cytotoxic activity [3]	cytotoxic activity [4]	induction of apoptosis (percentage of apoptotic cells in total cells) (AGS cells)
B1	binds				
B2		has the cytotoxic activity	has the cytotoxic activity	has the cytotoxic activity	mainly ascribed to apoptosis
